Laboratory results: US9187525B2, “Methods of treating ophthalmic diseases using NPR-B agonists” (Shire Orphan Therapies GmbH, dated 2015)
Numbered stars: 1 amine (or outer) side, 2 acyl side, 3 side chain; on linkers, the order of the positions; unused ones are H or OH. Square brackets hold non-standard residues; d marks the D form. * marks the point of attachment. Ebe = (R)-2-amino-3-(methylsulfanyl)propanoic acid, CSC[C@H](N[*:1])C(=O)[*:2]; 6059 = 3-(Octane-1-sulfinyl)-propionic acid, CCCCCCCCS(=O)CCC(=O)*; 6057 = 3-Octylsulfanyl-propionic acid, CCCCCCCCSCCC(=O)*; 6058 = 7-Butylsulfanyl-heptanoic acid, CCCCSCCCCCCC(=O)*; 6014 = (E)-dodec-2-enoic acid, CCCCCCCCC/C=C/C(=O)*; 6056 = (2S)-2-octylcyclopropanecarboxylic acid; Pro(trans-4-F) = O=C(O)[C@@H]1C[C@@H](F)CN1; Phe(4-Br) = N[C@@H](Cc1ccc(Br)cc1)C(=O)O; Dodecenoyl(5Z) = CCCCCC/C=C\CCCC(=O)*; Hyp = O=C(O)[C@@H]1C[C@@H](O)CN1; NMeF = CN[C@@H](Cc1ccccc1)C(=O)O; tBuAla = CC(C)(C)C[C@H](N)C(=O)O; dAgb = N=C(N)NCC[C@@H](N)C(=O)O; dAgp = N=C(N)NC[C@@H](N)C(=O)O; KM‑116‑167 = not defined here; NMeL = CN[C@@H](CC(C)C)C(=O)O; NMeK = CN[C@@H](CCCCN)C(=O)O; Tle = CC(C)(C)[C@H](N)C(=O)O; Lauroyl = CCCCCCCCCCCC(=O)*; dDab = NCC[C@@H](N)C(=O)O; NMeA = CN[C@@H](C)C(=O)O; Octanoyl = CCCCCCCC(=O)*; 6054 = not defined here; Nva = CCC[C@H](N)C(=O)O; Hexanoyl = CCCCCC(=O)*; GABA = NCCCC(=O)O; Sar = CNCC(=O)O

T1: natriuretic peptide receptor-B (human)
T1 chain: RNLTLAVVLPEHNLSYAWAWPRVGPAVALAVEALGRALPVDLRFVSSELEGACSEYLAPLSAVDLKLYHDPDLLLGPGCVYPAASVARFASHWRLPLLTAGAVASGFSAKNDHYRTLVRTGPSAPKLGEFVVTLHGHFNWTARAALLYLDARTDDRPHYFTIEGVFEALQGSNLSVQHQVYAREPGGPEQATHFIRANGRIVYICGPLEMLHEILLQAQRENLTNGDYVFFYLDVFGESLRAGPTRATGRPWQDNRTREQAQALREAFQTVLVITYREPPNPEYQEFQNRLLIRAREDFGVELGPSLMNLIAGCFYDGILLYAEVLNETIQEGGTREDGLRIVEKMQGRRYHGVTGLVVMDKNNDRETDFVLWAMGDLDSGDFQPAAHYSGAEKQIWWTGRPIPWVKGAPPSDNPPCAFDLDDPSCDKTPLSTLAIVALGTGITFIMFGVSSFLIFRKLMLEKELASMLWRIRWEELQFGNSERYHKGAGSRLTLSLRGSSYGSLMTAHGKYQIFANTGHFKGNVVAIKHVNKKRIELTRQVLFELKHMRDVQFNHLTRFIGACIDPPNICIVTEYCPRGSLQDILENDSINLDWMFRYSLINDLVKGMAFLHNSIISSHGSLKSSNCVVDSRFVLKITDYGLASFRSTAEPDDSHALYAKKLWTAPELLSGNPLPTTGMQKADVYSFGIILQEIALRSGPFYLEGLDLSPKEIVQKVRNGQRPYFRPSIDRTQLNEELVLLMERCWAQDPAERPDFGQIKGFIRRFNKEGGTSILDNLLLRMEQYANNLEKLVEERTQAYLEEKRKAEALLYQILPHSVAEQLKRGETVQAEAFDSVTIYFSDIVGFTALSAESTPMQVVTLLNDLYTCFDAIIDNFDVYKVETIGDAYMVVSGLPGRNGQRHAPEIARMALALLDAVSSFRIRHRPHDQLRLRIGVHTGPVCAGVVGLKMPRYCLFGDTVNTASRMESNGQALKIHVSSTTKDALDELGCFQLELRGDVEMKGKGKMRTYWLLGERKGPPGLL


Biological target: T1, natriuretic peptide receptor-B
Test: cell-based or functional assay

Binder	EC50 group, cGMP in GTM-3 cells [µM]
Octanoyl-[dA]F[dR]L[Pro(trans-4-F)]LDRI-NH2 [JAL-1114]	≤ 5
Octanoyl-[dA]FGL[Pro(trans-4-F)]LDRI-NH2 [JAL-1115]	≤ 5
Octanoyl-[dA][Phe(4-Br)][dR]L[Hyp]LDRI-NH2 [JAL-1116]	≤ 1
Octanoyl-[dA]F[dDab]LPLDRI-NH2 [JAL-1120]	≤ 5
Octanoyl-[dA]F[dAgb]LPLDRI-NH2 [JAL-1121]	≤ 5
Octanoyl-[dA]F[dAgp]LPLDRI-NH2 [JAL-1122]	≤ 5
Octanoyl-[dA]F[dR]L[Hyp]LDRI-NH2 [JAL-1156_02]	≤ 5
Octanoyl-XF[dR]L[Hyp]LDRI-NH2 (not fully specified (some residues); printed as Oct-pip-Phe-arg-Leu-Hyp-Leu-Asp-Arg-Ile-NH2) [JAL-1157_02]	≤ 15
Octanoyl-AFR[KM‑116‑167][NMeL]DRI-NH2 (not fully specified (some residues); printed as Occ-ala-Phe-arg-(KM-116-167)-Nml-Asp-Arg-Ile-NH2; reading uncertain) [JAL-1159]	≤ 15
Lauroyl-FRL[Hyp][NMeL]DRI-NH2 (not fully specified (some residues); printed as 832-Phe-arg-Leu-Hyp-Nml-Asp-Arg-Ile-NH2) [JAL-1214]	≤ 5
Hexanoyl-[Ebe][dA]FGLKLDRI-NH2 [JAL-0541]	≤ 15
Octanoyl-AFRL[Hyp]IDRI-NH2 (not fully specified (some residues); printed as Occ-ala-Phe-arg-Leu-Hyp-Ile-Asp-Arg-Ile-NH2) [JAL-1224]	≤ 5
Octanoyl-AFRL[Hyp][tBuAla]DRI-NH2 (not fully specified (some residues); printed as Occ-ala-Phe-arg-Leu-Hyp-Npg-Asp-Arg-Ile-NH2) [JAL-1225]	≤ 1
Octanoyl-AFRL[Hyp][Tle]DRI-NH2 (not fully specified (some residues); printed as Occ-ala-Phe-arg-Leu-Hyp-Tbg-Asp-Arg-Ile-NH2) [JAL-1226]	≤ 15
Octanoyl-AFRL[Hyp][Ebe]DRI-NH2 (not fully specified (some residues); printed as Occ-ala-Phe-arg-Leu-Hyp-Ebe-Asp-Arg-Ile-NH2) [JAL-1227]	≤ 5
Octanoyl-AFRLK[NMeL]DRI-NH2 (not fully specified (some residues); printed as Occ-ala-Phe-arg-Leu-Lys-Nml-Asp-Arg-Ile-NH2) [JAL-1228]	≤ 5

Binder	EC50 group, cGMP in GTM-3 cells [µM]
Octanoyl-AFRL[NMeK][NMeL]DRI-NH2 (not fully specified (some residues); printed as Occ-ala-Phe-arg-Leu-Nmk-Nml-Asp-Arg-Ile-NH2) [JAL-1229]	≤ 5
Octanoyl-AFRL[NMeA][NMeL]DRI-NH2 (not fully specified (some residues); printed as Occ-ala-Phe-arg-Leu-Nma-Nml-Asp-Arg-Ile-NH2) [JAL-1230]	≤ 15
Octanoyl-AFRL[Sar][NMeL]DRI-NH2 (not fully specified (some residues); printed as Occ-ala-Phe-arg-Leu-Sar-Nml-Asp-Arg-Ile-NH2) [JAL-1231]	≤ 5
Octanoyl-AFR[Nva][Hyp][NMeL]DRI-NH2 (not fully specified (some residues); printed as Occ-ala-Phe-arg-Nva-Hyp-Nml-Asp-Arg-Ile-NH2) [JAL-1232]	≤ 5
Octanoyl-AFR[Ebe][Hyp][NMeL]DRI-NH2 (not fully specified (some residues); printed as Occ-ala-Phe-arg-Ebe-Hyp-Nml-Asp-Arg-Ile-NH2) [JAL-1233]	≤ 5
Hexanoyl-[GABA]FGLKLDRIS[Ebe]-NH2 (SMILES CCCCCC(=O)NCCCC(=O)N[C@@H](Cc1ccccc1)C(=O)NCC(=O)N[C@@H](CC(C)C)C(=O)N[C@@H](CCCCN)C(=O)N[C@@H](CC(C)C)C(=O)N[C@@H](CC(=O)O)C(=O)N[C@@H](CCCNC(=N)N)C(=O)N[C@H](C(=O)N[C@@H](CO)C(=O)N[C@@H](CSC)C(N)=O)[C@@H](C)CC) [JAL-0542]	≤ 15
6014-FRL[Hyp][NMeL]DRI-NH2 (not fully specified (some residues); printed as 6014-Phe-arg-Leu-Hyp-Nml-Asp-Arg-Ile-NH2) [JAL-1237]	≤ 5
{Dodecenoyl(5Z)}-FRL[Hyp][NMeL]DRI-NH2 (not fully specified (some residues); printed as 6015-Phe-arg-Leu-Hyp-Nml-Asp-Arg-Ile-NH2) [JAL-1238]	≤ 5
6054-FRL[Hyp][NMeL]DRI-NH2 (not fully specified (some residues); printed as 6054-Phe-arg-Leu-Hyp-Nml-Asp-Arg-Ile-NH2; reading uncertain) [JAL-1239]	≤ 5
6056-FRL[Hyp][NMeL]DRI-NH2 (not fully specified (some residues); printed as 6056-Phe-arg-Leu-Hyp-Nml-Asp-Arg-Ile-NH2) [JAL-1240]	≤ 5
6057-FRL[Hyp][NMeL]DRI-NH2 (not fully specified (some residues); printed as 6057-Phe-arg-Leu-Hyp-Nml-Asp-Arg-Ile-NH2) [JAL-1241]	≤ 5
6058-FRL[Hyp][NMeL]DRI-NH2 (not fully specified (some residues); printed as 6058-Phe-arg-Leu-Hyp-Nml-Asp-Arg-Ile-NH2) [JAL-1242]	≤ 5
6059-FRL[Hyp][NMeL]DRI-NH2 (not fully specified (some residues); printed as 6059-Phe-arg-Leu-Hyp-Nml-Asp-Arg-Ile-NH2) [JAL-1243]	≤ 5
Lauroyl-[NMeF]RL[Hyp][NMeL]DRI-NH2 (not fully specified (some residues); printed as 832-Nmf-arg-Leu-Hyp-Nml-Asp-Arg-Ile-NH2) [JAL-1244]	≤ 15
Lauroyl-FLL[Hyp][NMeL]DRI-NH2 (not fully specified (some residues); printed as 832-Phe-leu-Leu-Hyp-Nml-Asp-Arg-Ile-NH2) [JAL-1245]	≤ 5
